The DeepSol protein solubility set

Assay: soluble on expression in E. coli; label from the status in PepcDB or PDB records
For “MAVRPVLAVGSYLPHAPWPWGVIDQAARVLLPASTTVRAAVSLPNASAQLVRASGVLPADGTRRAVLYLHGGAFLTCGANSHGRLVELLSKFADSPVLVVDYRLIPKHSIGMALDDCHDGYRWLRLLGYEPEQIVLAGDSAGGYLALALAQRLQEVGEEPAALVAISPLLQLAKEHKQAHPNIKTDAMFPARAFDALDALVASAAARNQVDGEPEELYEPLEHITPGLPRTLIHVSGSEVLLHDAQLAAAKLAAAGVPAEVRVWPGQVHDFQVAASMLPEAIRSLRQIGEYIREATG”, the “soluble on expression in E. coli” value was “soluble”.
For “DALNRFHDQPLNETELLALMGEMEGKISGGIHYDNVAPCYLGGVQLMLEELGIISQEVPCFDEWYWVMAYPGIKVSTAEAREILPSQYRRQDIIAHGRHLAGFIHACHSGQPELAAKMIKDVIAEPYREKLLPGFANARQ”, the “soluble on expression in E. coli” value was “not soluble”.
For “MSLIVVKIGGRVVKNSLDKIILDILNINDKVILVHGGGDIVTDYTKRLGIEPVFVTSPEGIRSRYTTKEELEVYIMAMSLINKSITSKLCSLGKNAIGITGVDGGLLLAERKKRIVVIDERGKKRIIEGGYTGKVKEVRSEIINHLVKLFDIIVVSPIALDVEERTPLNIDGDQAAFAISKALRANVLILLSDVEGVLVEGKVINRLTPSEAKELSKKIGPGMNRKLLMAAESVENGVNKVIIGSGVKDRPIINALELNGTVIANGEGHHHHHH”, the “soluble on expression in E. coli” value was “soluble”.
With “MGSDKIHHHHHHSGKLRKSNESGAMRAFRDGEVTIMVNVNLFTEGIDLPGVDVCIMLRPTASLSLYLQFAMRALNPRDGKRAILIDHVGNHIRHGLPNDDRYWTLEGVDKRKSSSKEKEEAPKTCENCFATFYRDRIVDGKCPYCGEPLKIIKDIEKEATNETLTLINQGMEFVSIRGEMIEVTREEALVYKRVKRYGKKYERCESLAELKAFRIIHGYAPGWLWHKQKELNLWRN” the “soluble on expression in E. coli” value was “not soluble”.
For “MSLRLKTILLTTMATGSFLCEPVAAMCIEPPATPDMGWFLKKKKKSNPQDSIKVKNEYEKLTGSDSVVRRGMFNVYQKKNDYYFEIPSTLLERDMLVVNKLQRVPAELNEAGVNRGTNYENQMIRFELDKSANKLLIRQSRPLPISPSEDAISQSVKDNYISPLIAGFKVEAYNNDSTSILIKVNDIYDGTETSINNVFTNINLGTSAIKNLSRILSIKSFDNNVVATSELTTRVTEGTTTIYVTVEVSSSILLLPEVPMTGRLDNPRVGYFTNPLTNFSDGQQRVNKKQFITRWRLEPRPEDRAAYLRGELVEPRKPIVFYIENSTPYRWRKYIKQGIEDWQVAFERAGFKNAIIAKDITEDMEVDMDDVNYSVLTYAASTKANAMGPSILDPRSGEILEADIMWWHNVLSMLQEWITVQTGVVRPEAREGHHHHHH”, the “soluble on expression in E. coli” value was “not soluble”.
With “MERLSPVFATSKSSNMEVEHWMTSLKEVEKVLDSVEPKLTSSGTKWRVVAQHIKDICSDLNQIFNKEDPRYEVVQAGASAAHDFDVRYLDIHKVRTPHEPLEMRHSKGRKHGREIARLLEKIQKYRQEIEEIKKEYKETDKYRERYDHYKVKLDNLEKKNKDQERIERNQQKFKDAEAAYSSVCADLIQKMETVWKKHVSIFAEAASAVWSTQLQYAKALEAAANPIVPYLQQEEQEEEEEEEAASGTQGRVAEKAYHTNEEKVENSFQKNSAIPPSFRTASEQLTEQSKNINNAKNTSETSPAEDIEA” the “soluble on expression in E. coli” value was “soluble”.
For “MTLRAAVFDLDGVLALPAVFGVLGRTEEALALPRGLLNDAFQKGGPEGATTRLMKGEITLSQWIPLMEENCRKCSETAKVCLPKNFSIKEIFDKAISARKINRPMLQAALMLRKKGFTTAILTNTWLDDRAERDGLAQLMCELKMHFDFLIESCQVGMVKPEPQIYKFLLDTLKASPSEVVFLDDIGANLKPARDLGMVTILVQDTDTALKELEKVTGIQLLNTPAPLPTSCNPSDMSHGYVTVKPRVRLHFVELGSGPAVCLCHGFPESWYSWRYQIPALAQAGYRVLAMDMKGYGESSAPPEIEEYCMEVLCKEMVTFLDKLGLSQAVFIGHDWGGMLVWYMALFYPERVRAVASLNTPFIPANPNMSPLESIKANPVFDYQLYFQEPGVAEAELEQNLSRTFKSLFRASDESVLSMHKVCEAGGLFVNSPEEPSLSRMVTEEEIQFYVQQFKKSGFRGPLNWYRNMERNWKWACKSLGRKILIPALMVTAEKDFVLVPQMSQHMEDWIPHLKRGHIEDCGHWTQMDKPTEVNQILIKWLDSDARNPPVVSKM”, the “soluble on expression in E. coli” value was “soluble”.
With “MEIRLFSGSAHPDLARRVAEALGVPLGKALVDRFPDGEVRVRLLESVRGEDVYLIQPTCPPVNDHLMELLLLADAARRSSAGRINAVIPYFGYARQDKQTEGREPISARLVAGLLERVGVERVIAIDLHAPQIQGFFDIPVDHLSAVRLFARYLREKGYVENAVVVSPDAGRAEEARRLAERLGLPLAMLAKRRLGPRETSVTYVIGDVEGKRPILVDDIVSTGGTIRRGVEALLQAGALPEVVVMATHAVLVGGAKENLAHPAVREVVFTDTIPLKDGGYTVLSTAELLAQAIRHVHTNQSVSALI” the “soluble on expression in E. coli” value was “soluble”.
With “MAGISLLLDQAFHRHFADFFTLRSVDNRVLLNLASPRHQLAKQSLVLLAKCCFLFHLSVSISNFPTVYPTRSTIDRFKRIFPHSPRVNADLSSSSWQTSRRNYCDHALEEYVDKIFVDEAVNELQTIQDILRWSVSRFSAANIWYGHGTDNPWDEAVQLVLPSLYLPLDIPEDMRTARLTSSEKHRIVERVIRRVNERIPVAYLTNKAWFCGHEFYVDERVLVPRSPIGELINNKFAGLISKQPQHILDMCTGSGCIAIACAYAFPEAEVDAVDISPDALAVAEQNIEEHGLIHNVIPIRSDLFRDLPKVQYDLIVTNPPYVDAEDMSDLPNEYRHEPELGLASGTDGLKLTRRILGNAADYLADDGVLICEVGNSMVHLMEQYPDVPFTWLEFDNGGDGVFMLTKEQLIAAREHFAIYKD” the “soluble on expression in E. coli” value was “not soluble”.
For “MSLYYKVAVSGSGKVLNVFSSEELLIGERVWLNWRNGKVKGYVLERSLSHENEATPSERDGKSFLSEGHVEIAKWVSERFFSPLGMVFDLFFPQGIDDYKEEVVVSESPFLDFDRMTLRDFLENFGEKALKEMVKKGLVRVEKNFYVKEPRPRVKKRLFLKKRISEIIREHLTVKQRMVVEYLQFNDGVPLEELLEDLEVSKSVIETLQRKNIVEIVSGDVFPKKRRILRGDFKGNISKENLFFGPTGSGKTEALFELIDVYSRKGTVLFLVPEVSVLTHTLSRLKGAFPDLKIGIYHSYLSRARKNLEWYKAASGKIDVLLGTRSAVFVPVKNLSLLIVDEEHDESFYQHTRPSYDAIVVARKISEVFDVPIILSSATPDLWTYREAKEGRIRTFNFTRRFGSLSVEVVDMRNEEKIGSFAKKTLDRIEETLEEGKRVLIYVRRKGFWGRVQCEVCGYVLKCENCDVSLVYHSDTHSLKCHQCGREYGLVESCPRCGGRLVGRTAGTERVERELKRYFPTRRIARVDREVVDNIMELESYIDKLIRGEIDILVGTRLITKSLSVPEIGLVCIMDVDSLIFNPDYSSSLRTFQLVVQALGRASRGDQGKAIIQTYNPEDTIIRKALEEDVNGFYAEELERRKALGYPPYRHLIQVAVKSKNPEVGKNSLTSLKEFLKGEEVLGPVEHWVFKLRGFYRHHLIVKTEDLERVLPKLEKALRILGIDAIVRVDPPTLEVSDEGHHHHHH”, the “soluble on expression in E. coli” value was “not soluble”.
In the case of “GMQKPHLLITSAGRRAKLVEYFVKEFKTGRVSTADCSPLASALYMADQHYIVPKIDEVEYIDHLLTLCQDEGVTALLTLIDPELGLLAQATERFQAIGVTVIVSPYAACELCFDKYTMYEYCLRQGIAHARTYATMASFEEALAAGEVQLPVFVKPRNGSASIEVRRVETVEEVEQLFSKNTDLIVQELLVGQELGVDAYVDLISGKVTSIFIKEKLTMRAGETDKSRSVLRDDVFELVEHVLDGSGLVGPLDFDLFDVAGTLYLSEINPRFGGGYPHAYECGVNFPAQLYRNLMHEINVPQIGQYLDDIYMLKHDTVTLISAAELQKIKR”, the “soluble on expression in E. coli” value is reported as “soluble”.
In the case of “MKLTGSKILIECLKEQGVDTIFGFPGGAVLNIYDELYRSQNEIRHILTSHEQGAAHAADGYARATGKVGVCLATSGPGATNLVTGIATAYMDSVPMVAITGQVATPLLGKDSFQEVDITGITMPITKHNFIVKDVNKLADIVRRAFYIAKEGRPGPVLIDICKDVTAAYAEYEPKSPQELPEVPVRVDEKCIDEAAEAINKAERPVILAGGGVSIAGANKELFEFATNAQIPVTTTLMGMGAFPGTHELFMGMIGMHGTKTTNMAVSESDLFIAIGARFSDRVISNVQRFAPKASIMHIDIDPAEIGKNINVQYALEGNIKKILQLLNERVKKKECTDWVRKINEWKELYPLKYPQDDKLHPQYIIERMYELTKGEAIITTEVGQHQMWAAQFYKYTSPRQFLSSGGLGTMGYGLGACIGARIGRPDKKVINVAGDGSFRMNCNELATAVEYKLPIIVAIFNNHALGMVRQWQQLFYGGRYSSTSLDRCTDFKALAEAYGAIGINVTAKEEVDEALNRALASEDTPVVINFEIDKDEMVFPIVPPGAPLSELIEE”, the “soluble on expression in E. coli” value is reported as “not soluble”.
For “MEDGHISSWWVVDLGEEHQLMCNYYTFRQDGSRAFTRFWKFQGSMDGKTWTDLRVHEDDQTMCKAGQFASWPITAANALLPFRFFRLVLTGPTADTSTPWNFCICYLELYGYFR”, the “soluble on expression in E. coli” value was “not soluble”.
In the case of GPLGSGTWDCDTCLVQNKPEAVKCVACETPKPG, the “soluble on expression in E. coli” value is reported as “soluble”.
With “MGSDKIHHHHHHATPAEIPFDAVLAGQTPMLFKGLVRDWPLVQAGLGSPQAARDYIRAHDRGVPVVGYTGDPAIKGRFFYNDTLTGLNFKAERAPLEAFLGRIEAVEGQENAPAIYIGSTDLDAYFPSLKAENDLGLGPEVYGPQPPMAGIWLGNRTVAAAHYDMSNNIAVCAVGRRRFTLFPPDQVANLYPGPLEPTPGGQVVSMVDFETPDFDRHPRFREALASAQVAEMEPGDVLVYPALWWHQVEALDGFNVLMNYWWNATPAFVDTPMTTLLHGLLSLRDRPDFEKQGWKALFDYYVFGPAERAGAHLPDDARGPLGALDDLKARRLRAWLLDRLNR” the “soluble on expression in E. coli” value was “not soluble”.
For “MAHHHHHHMALRRLVKMSTTAEECAAVSELFRQYRHPNLVPLTNVLVTDEFVMGSADVIMEYKFITGAKSLNEAFINEGKATEGLLWSFACQMVSLMRAFHETSTPLRGLHWTKILFVPVSSRFYFSGVGFMDVMEPKGSAHQSAALMKHDIQSLGLLLLQLSTGNSNAKPEDFTAQPAKGYSGIFWLLVKACIDGTADVVTLCRALGERMSMEVAHQEGHADRLISQCGKEAHNGRIMRLMIKLNFVLESLHDFPEHSAEANNRYALRLFSQYVFNQVDERHRTRLDWGHVFHSLNKLDCGSEELVQLIGNDESNTILVISYRDLRDTLERAFEQLQPPPNEGDVQPFTVTVGTTSATL”, the “soluble on expression in E. coli” value was “not soluble”.
With “SNILEKVVLKVLEDQQNIRLIRELLQTLYTSLCTLVQRVGKSVLVGNINMWVYRMETILHWQQQLNNIQITRPAFKGLTFTDLPLCLQLNIMQRLSDGRDLVSLGQAAPDLHVLSEDRLLWKKLCQYHFSERQIRKRLILSDKGQLDWKKMYFKLVRCYPRKEQYGDTLQLRKHCHILSWKGTDHPCTANNPESCSVSLSPQDFINLFKF” the “soluble on expression in E. coli” value was “not soluble”.
With “MGSDKIHHHHHHLCLIKPGLKVLEIGCGTGRVLKPLLESGASVVGVDISHEMLALAHNKLASFCDSGALRLLNHNFVYSSIPERFDRVFVTFYTFNYLLSYENALSFLKNIYSSMNDGAVLLMDMFFPSIYHNPAIEGKWQQRYLNLGAKQIRLSDRRTMRGPMEKREQVFEEDGGRQEITTLRRFYDKNETARLLREAGFSSVKFTDVYDSTLFHQLELLEATDRGFLVMGRREAGGGEG” the “soluble on expression in E. coli” value was “not soluble”.
With “AMAKGVGVSNEKLDAVMRVVSEESGIALEELTDDSNFADMGIDSLSSMVIGSRFREDLGLDLGPEFSLFIDCTTVRALKDFMLGSGDAG” the “soluble on expression in E. coli” value was “soluble”.
In the case of “GWIQELTAGHAEHTPETEEYGISSFVYKRRLPFHSTRFYRWLDQMPKNVVRAKGIVWCASHNNLALLMSQAGPSVTIEPVSYWVAALPKLEQEQVKQQEPEILEEWDPEFGDRLTQLVFIGTDLDEETITKELDQCLLTEYEFDSDWSLFEDPFKWKLNQ”, the “soluble on expression in E. coli” value is reported as “not soluble”.
